This passage reports 假病毒中和 IC50 (荧光素酶报告基因, 293-ACE2细胞) results from patent CN116178530A.

Test in all cases: cell-based or functional assay
Assay [1] has as its target SARS-CoV-2的Kappa突变株(B.1.617.1)假病毒的刺突蛋白 (SARS-CoV-2) (UniProt P0DTC2).
For assay [2], the target named is SARS-CoV-2的Delta突变株(B.1.617.2)假病毒的刺突蛋白 (SARS-CoV-2) (UniProt P0DTC2).
Assay [3] concerns the target SARS-CoV-2的Alpha突变株(B.1.1.7)假病毒的刺突蛋白 (SARS-CoV-2) (UniProt P0DTC2).

Consider CB6 (antibody), for which the 假病毒中和 IC50 (荧光素酶报告基因, 293-ACE2细胞) in assay [1] turned out to be 0.0147 µg/mL; in assay [2], 0.00343 µg/mL; in assay [3] it was 0.0557 µg/mL.
